{
  "source": "patent US20210032299A1",
  "about": "(Eli Lilly, published 2021)",
  "binders": {"B1": {"name": "Example 54 (peptide)", "peptide": "Y[Aib]EGTFISDYSI[αMeL]LDKK([AEEA-AEEA-γGlu-C20 diacid])HQ[Aib]DFVEWLLAGGPSSGAPPPS-NH2", "modifications": "N-terminus assumed", "SMILES": "CC[C@H](C)[C@H](NC(=O)[C@H](Cc1ccccc1)NC(=O)[C@@H](NC(=O)CNC(=O)[C@H](CCC(=O)O)NC(=O)C(C)(C)NC(=O)[C@@H](N)Cc1ccc(O)cc1)[C@@H](C)O)C(=O)N[C@@H](CO)C(=O)N[C@@H](CC(=O)O)C(=O)N[C@@H](Cc1ccc(O)cc1)C(=O)N[C@@H](CO)C(=O)N[C@H](C(=O)N[C@@](C)(CC(C)C)C(=O)N[C@@H](CC(C)C)C(=O)N[C@@H](CC(=O)O)C(=O)N[C@@H](CCCCN)C(=O)N[C@@H](CCCCNC(=O)COCCOCCNC(=O)COCCOCCNC(=O)CC[C@H](NC(=O)CCCCCCCCCCCCCCCCCCC(=O)O)C(=O)O)C(=O)N[C@@H](Cc1c[nH]cn1)C(=O)N[C@@H](CCC(N)=O)C(=O)NC(C)(C)C(=O)N[C@@H](CC(=O)O)C(=O)N[C@@H](Cc1ccccc1)C(=O)N[C@H](C(=O)N[C@@H](CCC(=O)O)C(=O)N[C@@H](Cc1c[nH]c2ccccc12)C(=O)N[C@@H](CC(C)C)C(=O)N[C@@H](CC(C)C)C(=O)N[C@@H](C)C(=O)NCC(=O)NCC(=O)N1CCC[C@H]1C(=O)N[C@@H](CO)C(=O)N[C@@H](CO)C(=O)NCC(=O)N[C@@H](C)C(=O)N1CCC[C@H]1C(=O)N1CCC[C@H]1C(=O)N1CCC[C@H]1C(=O)N[C@@H](CO)C(N)=O)C(C)C)[C@@H](C)CC"}, "B2": {"name": "Example 64 (peptide)", "peptide": "Y[Aib]EGTFISDYSI[αMeL]LDKK([AEEA-AEEA-γGlu-C20 diacid])HQ[Aib]EFVEYLLETGPSSGAPPPS-NH2", "modifications": "N-terminus assumed", "SMILES": "CC[C@H](C)[C@H](NC(=O)[C@H](Cc1ccccc1)NC(=O)[C@@H](NC(=O)CNC(=O)[C@H](CCC(=O)O)NC(=O)C(C)(C)NC(=O)[C@@H](N)Cc1ccc(O)cc1)[C@@H](C)O)C(=O)N[C@@H](CO)C(=O)N[C@@H](CC(=O)O)C(=O)N[C@@H](Cc1ccc(O)cc1)C(=O)N[C@@H](CO)C(=O)N[C@H](C(=O)N[C@@](C)(CC(C)C)C(=O)N[C@@H](CC(C)C)C(=O)N[C@@H](CC(=O)O)C(=O)N[C@@H](CCCCN)C(=O)N[C@@H](CCCCNC(=O)COCCOCCNC(=O)COCCOCCNC(=O)CC[C@H](NC(=O)CCCCCCCCCCCCCCCCCCC(=O)O)C(=O)O)C(=O)N[C@@H](Cc1c[nH]cn1)C(=O)N[C@@H](CCC(N)=O)C(=O)NC(C)(C)C(=O)N[C@@H](CCC(=O)O)C(=O)N[C@@H](Cc1ccccc1)C(=O)N[C@H](C(=O)N[C@@H](CCC(=O)O)C(=O)N[C@@H](Cc1ccc(O)cc1)C(=O)N[C@@H](CC(C)C)C(=O)N[C@@H](CC(C)C)C(=O)N[C@@H](CCC(=O)O)C(=O)N[C@H](C(=O)NCC(=O)N1CCC[C@H]1C(=O)N[C@@H](CO)C(=O)N[C@@H](CO)C(=O)NCC(=O)N[C@@H](C)C(=O)N1CCC[C@H]1C(=O)N1CCC[C@H]1C(=O)N1CCC[C@H]1C(=O)N[C@@H](CO)C(N)=O)[C@@H](C)O)C(C)C)[C@@H](C)CC"}, "B3": {"name": "Example 65 (peptide)", "peptide": "Y[Aib]EGTFISDYSI[αMeL]LDKK([AEEA-AEEA-γGlu-C20 diacid])HQ[Aib]EFVEYLLEAGPSSGAPPPS-NH2", "modifications": "N-terminus assumed", "SMILES": "CC[C@H](C)[C@H](NC(=O)[C@H](Cc1ccccc1)NC(=O)[C@@H](NC(=O)CNC(=O)[C@H](CCC(=O)O)NC(=O)C(C)(C)NC(=O)[C@@H](N)Cc1ccc(O)cc1)[C@@H](C)O)C(=O)N[C@@H](CO)C(=O)N[C@@H](CC(=O)O)C(=O)N[C@@H](Cc1ccc(O)cc1)C(=O)N[C@@H](CO)C(=O)N[C@H](C(=O)N[C@@](C)(CC(C)C)C(=O)N[C@@H](CC(C)C)C(=O)N[C@@H](CC(=O)O)C(=O)N[C@@H](CCCCN)C(=O)N[C@@H](CCCCNC(=O)COCCOCCNC(=O)COCCOCCNC(=O)CC[C@H](NC(=O)CCCCCCCCCCCCCCCCCCC(=O)O)C(=O)O)C(=O)N[C@@H](Cc1c[nH]cn1)C(=O)N[C@@H](CCC(N)=O)C(=O)NC(C)(C)C(=O)N[C@@H](CCC(=O)O)C(=O)N[C@@H](Cc1ccccc1)C(=O)N[C@H](C(=O)N[C@@H](CCC(=O)O)C(=O)N[C@@H](Cc1ccc(O)cc1)C(=O)N[C@@H](CC(C)C)C(=O)N[C@@H](CC(C)C)C(=O)N[C@@H](CCC(=O)O)C(=O)N[C@@H](C)C(=O)NCC(=O)N1CCC[C@H]1C(=O)N[C@@H](CO)C(=O)N[C@@H](CO)C(=O)NCC(=O)N[C@@H](C)C(=O)N1CCC[C@H]1C(=O)N1CCC[C@H]1C(=O)N1CCC[C@H]1C(=O)N[C@@H](CO)C(N)=O)C(C)C)[C@@H](C)CC"}, "B4": {"name": "Example 63 (peptide)", "peptide": "Y[Aib]EGTFISDYSI[αMeL]LDKK([AEEA-AEEA-γGlu-C20 diacid])HQ[Aib]EFVEYLLEQGPSSGAPPPS-NH2", "modifications": "N-terminus assumed", "SMILES": "CC[C@H](C)[C@H](NC(=O)[C@H](Cc1ccccc1)NC(=O)[C@@H](NC(=O)CNC(=O)[C@H](CCC(=O)O)NC(=O)C(C)(C)NC(=O)[C@@H](N)Cc1ccc(O)cc1)[C@@H](C)O)C(=O)N[C@@H](CO)C(=O)N[C@@H](CC(=O)O)C(=O)N[C@@H](Cc1ccc(O)cc1)C(=O)N[C@@H](CO)C(=O)N[C@H](C(=O)N[C@@](C)(CC(C)C)C(=O)N[C@@H](CC(C)C)C(=O)N[C@@H](CC(=O)O)C(=O)N[C@@H](CCCCN)C(=O)N[C@@H](CCCCNC(=O)COCCOCCNC(=O)COCCOCCNC(=O)CC[C@H](NC(=O)CCCCCCCCCCCCCCCCCCC(=O)O)C(=O)O)C(=O)N[C@@H](Cc1c[nH]cn1)C(=O)N[C@@H](CCC(N)=O)C(=O)NC(C)(C)C(=O)N[C@@H](CCC(=O)O)C(=O)N[C@@H](Cc1ccccc1)C(=O)N[C@H](C(=O)N[C@@H](CCC(=O)O)C(=O)N[C@@H](Cc1ccc(O)cc1)C(=O)N[C@@H](CC(C)C)C(=O)N[C@@H](CC(C)C)C(=O)N[C@@H](CCC(=O)O)C(=O)N[C@@H](CCC(N)=O)C(=O)NCC(=O)N1CCC[C@H]1C(=O)N[C@@H](CO)C(=O)N[C@@H](CO)C(=O)NCC(=O)N[C@@H](C)C(=O)N1CCC[C@H]1C(=O)N1CCC[C@H]1C(=O)N1CCC[C@H]1C(=O)N[C@@H](CO)C(N)=O)C(C)C)[C@@H](C)CC"}, "B5": {"name": "Example 66 (peptide)", "peptide": "Y[Aib]EGTFISDYSI[αMeL]LDKK([AEEA-AEEA-γGlu-C20 diacid])HQ[Aib]DFVEYLLETGPSSGAPPPS-NH2", "modifications": "N-terminus assumed", "SMILES": "CC[C@H](C)[C@H](NC(=O)[C@H](Cc1ccccc1)NC(=O)[C@@H](NC(=O)CNC(=O)[C@H](CCC(=O)O)NC(=O)C(C)(C)NC(=O)[C@@H](N)Cc1ccc(O)cc1)[C@@H](C)O)C(=O)N[C@@H](CO)C(=O)N[C@@H](CC(=O)O)C(=O)N[C@@H](Cc1ccc(O)cc1)C(=O)N[C@@H](CO)C(=O)N[C@H](C(=O)N[C@@](C)(CC(C)C)C(=O)N[C@@H](CC(C)C)C(=O)N[C@@H](CC(=O)O)C(=O)N[C@@H](CCCCN)C(=O)N[C@@H](CCCCNC(=O)COCCOCCNC(=O)COCCOCCNC(=O)CC[C@H](NC(=O)CCCCCCCCCCCCCCCCCCC(=O)O)C(=O)O)C(=O)N[C@@H](Cc1c[nH]cn1)C(=O)N[C@@H](CCC(N)=O)C(=O)NC(C)(C)C(=O)N[C@@H](CC(=O)O)C(=O)N[C@@H](Cc1ccccc1)C(=O)N[C@H](C(=O)N[C@@H](CCC(=O)O)C(=O)N[C@@H](Cc1ccc(O)cc1)C(=O)N[C@@H](CC(C)C)C(=O)N[C@@H](CC(C)C)C(=O)N[C@@H](CCC(=O)O)C(=O)N[C@H](C(=O)NCC(=O)N1CCC[C@H]1C(=O)N[C@@H](CO)C(=O)N[C@@H](CO)C(=O)NCC(=O)N[C@@H](C)C(=O)N1CCC[C@H]1C(=O)N1CCC[C@H]1C(=O)N1CCC[C@H]1C(=O)N[C@@H](CO)C(N)=O)[C@@H](C)O)C(C)C)[C@@H](C)CC"}},
  "note": "Starred links: 1 amine or outer side, 2 acyl side, 3 side chain; linkers in the order of their positions; H or OH if unused. Non-standard residues stand in square brackets, D forms with d. Groups on a side chain read outwards from the residue. No end group written: not given here. *: point of attachment. C20 diacid = O=C(O)CCCCCCCCCCCCCCCCCCC(=O)*; γGlu = O=C(O)[C@H](CCC(=O)[*:2])N[*:1]; αMeL = CC(C)C[C@](C)(N)C(=O)O; AEEA = NCCOCCOCC(=O)O; Aib = CC(C)(N)C(=O)O",
  "data": [
    {"target": "T1, human GLP-1 receptor (human, UniProt P43220 24-463)", "T1 construct": "whole, on cells; Assayed as crude membranes of stably transfected HEK293 cells; also called hGLP1R; hGLP-1R", "assay": "SPA, displacement of [125I]-GLP-1 from hGLP-1R membranes, 0.1% bacitracin", "summary_of_the_method": "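Binding buffer: 25 mM HEPES pH 7.4, 2.5 mM CaCl₂, 1 mM MgCl₂, 0.1% bacitracin, 0.003% Tween-20, protease inhibitors without EDTA. Four-parameter nonlinear regression; Kᵢ given as geometric mean ± SEM, n = independent replicates run on different days.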", "units": {"Ki": "nM"}, "values": [
      {"binder": "B1", "Ki": 49.9},
      {"binder": "B2", "Ki": 477},
      {"binder": "B3", "Ki": 305},
      {"binder": "B4", "Ki": 327},
      {"binder": "B5", "Ki": 326}
    ]},
    {"target": "T2, human glucose-dependent insulinotropic polypeptide (GIP) receptor (human, UniProt P48546 22-466)", "T2 construct": "whole, on cells; Assayed as crude membranes of stably transfected CHO cells; also called hGIPR; human GIP receptor", "T2 sequence (looked up)": "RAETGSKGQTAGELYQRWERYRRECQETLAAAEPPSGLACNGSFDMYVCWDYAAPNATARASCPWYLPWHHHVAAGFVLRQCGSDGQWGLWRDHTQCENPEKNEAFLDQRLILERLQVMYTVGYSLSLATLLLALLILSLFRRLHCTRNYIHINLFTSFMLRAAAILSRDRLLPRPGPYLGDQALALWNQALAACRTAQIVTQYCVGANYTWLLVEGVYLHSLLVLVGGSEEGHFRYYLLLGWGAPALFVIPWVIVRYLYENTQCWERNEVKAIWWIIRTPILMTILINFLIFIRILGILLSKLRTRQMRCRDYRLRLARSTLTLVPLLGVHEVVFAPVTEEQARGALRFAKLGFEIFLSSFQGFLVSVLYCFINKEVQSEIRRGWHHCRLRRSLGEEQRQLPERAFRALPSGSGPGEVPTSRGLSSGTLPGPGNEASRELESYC", "assay": "SPA, displacement of [125I]-GIP from hGIPR membranes, 0.1% bacitracin", "units": {"Ki": "nM"}, "values": [
      {"binder": "B1", "Ki": 0.0326},
      {"binder": "B2", "Ki": 0.022},
      {"binder": "B3", "Ki": 0.0316},
      {"binder": "B4", "Ki": 0.0248},
      {"binder": "B5", "Ki": 0.0866}
    ]},
    {"target": "T3, human glucagon receptor (human, UniProt P47871 26-477)", "T3 construct": "whole, on cells; Assayed as crude membranes of stably transfected HEK293 cells; also called hGcgR; GcgR", "T3 sequence (P47871 26-477)": "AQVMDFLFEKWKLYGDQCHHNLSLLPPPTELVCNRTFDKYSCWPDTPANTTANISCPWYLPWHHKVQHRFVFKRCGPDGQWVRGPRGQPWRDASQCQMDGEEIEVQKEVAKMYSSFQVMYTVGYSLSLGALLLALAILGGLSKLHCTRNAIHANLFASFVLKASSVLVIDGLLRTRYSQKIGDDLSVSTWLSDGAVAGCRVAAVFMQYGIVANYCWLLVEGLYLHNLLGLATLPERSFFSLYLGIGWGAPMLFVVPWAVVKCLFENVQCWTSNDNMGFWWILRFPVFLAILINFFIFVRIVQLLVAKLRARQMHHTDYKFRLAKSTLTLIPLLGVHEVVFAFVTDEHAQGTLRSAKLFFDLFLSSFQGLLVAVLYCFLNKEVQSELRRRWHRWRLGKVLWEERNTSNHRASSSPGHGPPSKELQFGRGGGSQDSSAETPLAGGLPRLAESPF", "assay": "SPA, displacement of [125I]-Gcg from hGcgR membranes, 0.1% bacitracin", "summary_of_the_method": "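Binding buffer: 25 mM HEPES pH 7.4, 2.5 mM CaCl₂, 1 mM MgCl₂, 0.003% Tween-20, protease inhibitors without EDTA. Counted by scintillation after 12 h incubation/settling at room temperature. Four-parameter nonlinear fit; Kᵢ given as geometric mean ± SEM of independent replicates run on different days.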", "units": {"Ki": "nM"}, "values": [
      {"binder": "B1", "Ki": 386},
      {"binder": "B2", "Ki": 196},
      {"binder": "B3", "Ki": 279},
      {"binder": "B4", "Ki": 185},
      {"binder": "B5", "Ki": 279}
    ]}
  ]
}
